Results: patent US20240343800A1 (Merck KGaA, published 2024)

Assays:
[1] = target: T1, recombinant human ROR1 extracellular domain protein (human, UniProt Q01973 30-406); assay: biolayer interferometry, TCE immobilized
T1 construct: also called Human/Cyno ROR1
Description: (§1) This example describes biolayer interferometry experiments that were used to determine the binding affinities of bispecific TCEs and sequence optimized variants of the present disclosure.

[2] = target: T2, recombinant human CD3ε/δ heterodimer SEED Fc fusion protein (human, UniProt P07766 23-126; P04234 22-105); assay: biolayer interferometry, TCE immobilized
T2 construct: not shown: SEED Fc arm, not specified
Description: as §1

T2 sequence (P07766 23-126, stated change not applied, chain 1 of 2): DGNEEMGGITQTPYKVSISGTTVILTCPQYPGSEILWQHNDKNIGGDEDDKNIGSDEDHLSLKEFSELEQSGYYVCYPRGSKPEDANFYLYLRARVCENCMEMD
T2 sequence (P04234 22-105, stated change not applied, chain 2 of 2): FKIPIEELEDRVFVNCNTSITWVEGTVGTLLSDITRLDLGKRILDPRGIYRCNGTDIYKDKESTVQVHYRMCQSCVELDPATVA

Row | Binder | Kd [1] [nM] | Kd [2] [nM]
1 | 69A02 (bispecific TCE of Table 29) (bispecific antibody, V domains shown) VH: QVTLKESGPTLVKPTQTLTLTCSFSGFSITTSGVSVGWIRQPPGKALEWLALIYWDDDKRYSPSLKSRLTITRDTSKNQVVLTMTNMDPVDTATYYCAHAPRYTPGGYFDYWGQGTLVTVSS VL: ETTLTQSPATLSVSPGETATLSCRASQSVSSNLAWYQQKPGQAPRLLIYGASTRATGIPATFSGSGSGTEFTLTISSLQSEDFAIYYCQQYKNWPPAFGGGTELEIK | 3.5 | –
2 | 82H02 (bispecific TCE of Table 29) (bispecific antibody, V domains shown) VH: EVQLLESGGGLVQPGGSLRLSCAASGFTFTSYAMSWVRQAPGKGLEWVSTISGSGGGTYYTDSVKGRFTISRDNSKNTLYLQMNSLRAEDTAVYYCAQGSSIFDYWGQGTLVTVSS VL: EIVLTQSPATLSLSPGERATLSCRASQSVSSYLAWYQQKPGQAPRLLIYDASNRATGIPARFSGSGSGTDFTLTISSLEPEDFAVYYCQQRSNWPPCTFGQGTRLEIK | 5.4 | –
3 | 82H02 VL1.02 (bispecific TCE of Table 29) (bispecific antibody, V domains shown, also called 82H02 v1.02) VH: EVQLLESGGGLVQPGGSLRLSCAASGFTFTSYAMSWVRQAPGKGLEWVSTISGSGGGTYYTDSVKGRFTISRDNSKNTLYLQMNSLRAEDTAVYYCAQGSSIFDYWGQGTLVTVSS VL: EIVLTQSPATLSLSPGERATLSCRASQSVSSYLAWYQQKPGQAPRLLIYDASNRATGIPARFSGSGSGTDFTLTISSLEPEDFAVYYCQQRSNWPPRTFGQGTRLEIK | 122 | –
4 | 82H02 VL1.03 (bispecific TCE of Table 29) (bispecific antibody, V domains shown, also called 82H02 v1.03) VH: EVQLLESGGGLVQPGGSLRLSCAASGFTFTSYAMSWVRQAPGKGLEWVSTISGSGGGTYYTDSVKGRFTISRDNSKNTLYLQMNSLRAEDTAVYYCAQGSSIFDYWGQGTLVTVSS VL: EIVLTQSPATLSLSPGERATLSCRASQSVSSYLAWYQQKPGQAPRLLIYDASNRATGIPARFSGSGSGTDFTLTISSLEPEDFAVYYCQQRSNWPPQTFGQGTRLEIK | 475 | –
5 | 82H02 VL1.04 (bispecific TCE of Table 29) (bispecific antibody, V domains shown, also called 82H02 v1.04) VH: EVQLLESGGGLVQPGGSLRLSCAASGFTFTSYAMSWVRQAPGKGLEWVSTISGSGGGTYYTDSVKGRFTISRDNSKNTLYLQMNSLRAEDTAVYYCAQGSSIFDYWGQGTLVTVSS VL: not shown | 50.7 | –
6 | 82H02 VL1.05 (bispecific TCE of Table 29) (bispecific antibody, V domains shown, also called 82H02 v1.05) VH: EVQLLESGGGLVQPGGSLRLSCAASGFTFTSYAMSWVRQAPGKGLEWVSTISGSGGGTYYTDSVKGRFTISRDNSKNTLYLQMNSLRAEDTAVYYCAQGSSIFDYWGQGTLVTVSS VL: EIVLTQSPATLSLSPGERATLSCRASQSVSSYLAWYQQKPGQAPRLLIYDASNRATGIPARFSGSGSGTDFTLTISSLEPEDFAVYYCQQRSNWPPLTFGQGTRLEIK | 154 | –
7 | 82H02 VL1.06 (low) (bispecific TCE of Table 29) (bispecific antibody, V domains shown, also called 82H02 v1.06) VH: EVQLLESGGGLVQPGGSLRLSCAASGFTFTSYAMSWVRQAPGKGLEWVSTISGSGGGTYYTDSVKGRFTISRDNSKNTLYLQMNSLRAEDTAVYYCAQGSSIFDYWGQGTLVTVSS VL: EIVLTQSPATLSLSPGERATLSCRASQSVSSYLAWYQQKPGQAPRLLIYDASNRATGIPARFSGSGSGTDFTLTISSLEPEDFAVYYCQQRSNWPPFTFGQGTRLEIK | 99 | –
8 | 82H02 VL1.07 (high) (bispecific TCE of Table 29) (bispecific antibody, V domains shown, also called 82H02 v1.07) VH: EVQLLESGGGLVQPGGSLRLSCAASGFTFTSYAMSWVRQAPGKGLEWVSTISGSGGGTYYTDSVKGRFTISRDNSKNTLYLQMNSLRAEDTAVYYCAQGSSIFDYWGQGTLVTVSS VL: EIVLTQSPATLSLSPGERATLSCRASQSVSSYLAWYQQKPGQAPRLLIYDASNRATGIPARFSGSGSGTDFTLTISSLEPEDFAVYYCQQRSNWPPSTFGQGTRLEIK | 4.2 | –
9 | 82H02 VL1.08 (bispecific TCE of Table 29) (bispecific antibody, V domains shown, also called 82H02 v1.08) VH: EVQLLESGGGLVQPGGSLRLSCAASGFTFTSYAMSWVRQAPGKGLEWVSTISGSGGGTYYTDSVKGRFTISRDNSKNTLYLQMNSLRAEDTAVYYCAQGSSIFDYWGQGTLVTVSS VL: EIVLTQSPATLSLSPGERATLSCRASQSVSSYLAWYQQKPGQAPRLLIYDASNRATGIPARFSGSGSGTDFTLTISSLEPEDFAVYYCQQRSNWPPYTFGQGTRLEIK | 166 | –
10 | 82H02 VL1.09 (bispecific TCE of Table 29) (bispecific antibody, V domains shown, also called 82H02 v1.09) VH: EVQLLESGGGLVQPGGSLRLSCAASGFTFTSYAMSWVRQAPGKGLEWVSTISGSGGGTYYTDSVKGRFTISRDNSKNTLYLQMNSLRAEDTAVYYCAQGSSIFDYWGQGTLVTVSS VL: EIVLTQSPATLSLSPGERATLSCRASQSVSSYLAWYQQKPGQAPRLLIYDASNRATGIPARFSGSGSGTDFTLTISSLEPEDFAVYYCQQRSNWPPVTFGQGTRLEIK | 160 | –
11 | Parental 1F3.5 (CD3-binding bispecific TCE of Table 30) (bispecific antibody, V domains shown, also called IF3.5) VH: EVQLVESGGGLVQPGGSLRLSCAASGFTFNTYAMNWVRQAPGKGLEWVARIRSKYNNYATYYADSVKDRFTISRDDSKNTLYLQMNSLRAEDTAVYYCVRHGNFGNSYVSWFAYWGQGTMVTVSS VL: QAVVTQEPSLTVSPGGTVTLTCRSSTGAVTTSNYANWVQQKPGQAPRGLIGGTNKRAPGTPARFSGSLLGGKAALTLSGVQPEDEAEYYCALWYSNLWVFGGGTKLTVLG | – | 2.7
12 | 1F3.5 VL1.00-VH1.01 (CD3-binding bispecific TCE of Table 30) (bispecific antibody, V domains shown, CD3 Fab arm only) VH: EVQLVESGGGLVQPGGSLKLSCAASGFTFNTYAMNWVRQASGKGLEWVGRIRSKYNNYATYYADSVKGRFTISRDDSKNTLYLQMNSLKTEDTAVYYCVRHGNFGNSYVSWFAYWGQGTMVTVSS VL: QAVVTQEPSLTVSPGGTVTLTCRSSTGAVTTSNYANWVQQKPGQAPRGLIGGTNKRAPGTPARFSGSLLGGKAALTLSGVQPEDEAEYYCALWYSNLWVFGGGTKLTVLG | – | 2.9
13 | 1F3.5 VL1.00-VH1.02 (CD3-binding bispecific TCE of Table 30) (bispecific antibody, V domains shown, CD3 Fab arm only; VL1.00 read as the parental 1F3.5 light chain) VH: EVQLVESGGGLVQPGGSLKLSCAASGFTFNTYAMNWVRQASGKGLEWVGRIRSKYNNYATYYADSVKGRFTISRDDSKNTAYLQMNSLKTEDTAVYYCVRHGNFGNSYVSWFAYWGQGTMVTVSS VL: QAVVTQEPSLTVSPGGTVTLTCRSSTGAVTTSNYANWVQQKPGQAPRGLIGGTNKRAPGTPARFSGSLLGGKAALTLSGVQPEDEAEYYCALWYSNLWVFGGGTKLTVLG | – | 5.5
14 | 1F3.5 VL1.00-VH1.03 (high) (CD3-binding bispecific TCE of Table 30) (bispecific antibody, V domains shown, CD3 Fab arm only; VL1.00 read as the parental 1F3.5 light chain; also called 1F3.5-VH1.03) VH: EVQLVESGGGLVQPGGSLKLSCAASGFTFNTYAMNWVRQASGKGLEWVGRIRSKYNNYATYYADSVKGRFTISRDDSKNTLYLQMNSLKTEDTAVYYCVRHGNFGASYVSWFAYWGQGTMVTVSS VL: QAVVTQEPSLTVSPGGTVTLTCRSSTGAVTTSNYANWVQQKPGQAPRGLIGGTNKRAPGTPARFSGSLLGGKAALTLSGVQPEDEAEYYCALWYSNLWVFGGGTKLTVLG | – | 4.6
15 | 1F3.5 VL1.00-VH1.04 (CD3-binding bispecific TCE of Table 30) (bispecific antibody, V domains shown, CD3 Fab arm only; VL1.00 read as the parental 1F3.5 light chain) VH: EVQLVESGGGLVQPGGSLKLSCAASGFTFNTYAMNWVRQASGKGLEWVGRIRSKYNNYATYYADSVKGRFTISRDDSKNTLYLQMNSLKTEDTAVYYCVRHGNFGESYVSWFAYWGQGTMVTVSS VL: QAVVTQEPSLTVSPGGTVTLTCRSSTGAVTTSNYANWVQQKPGQAPRGLIGGTNKRAPGTPARFSGSLLGGKAALTLSGVQPEDEAEYYCALWYSNLWVFGGGTKLTVLG | – | 6.5
16 | 1F3.5 VL1.01-VH1.00 (CD3-binding bispecific TCE of Table 30) (bispecific antibody, V domains shown, CD3 Fab arm only; VH1.00 read as the parental 1F3.5 heavy chain) VH: EVQLVESGGGLVQPGGSLRLSCAASGFTFNTYAMNWVRQAPGKGLEWVARIRSKYNNYATYYADSVKDRFTISRDDSKNTLYLQMNSLRAEDTAVYYCVRHGNFGNSYVSWFAYWGQGTMVTVSS VL: QTVVTQEPSLTVSPGGTVTLTCASSTGAVTTSNYANWVQQKPGQAPRALIGGTNKRAPGTPARFSGSLLGGKAALTLSGVQPEDEAEYYCALWYSNLWVFGGGTKLTVLG | – | 62.3
17 | 1F3.5 VL1.01-VH1.01 (low) (CD3-binding bispecific TCE of Table 30) (bispecific antibody, V domains shown, CD3 Fab arm only; also called 1F3.5-VH1.01-VL1.01) VH: EVQLVESGGGLVQPGGSLKLSCAASGFTFNTYAMNWVRQASGKGLEWVGRIRSKYNNYATYYADSVKGRFTISRDDSKNTLYLQMNSLKTEDTAVYYCVRHGNFGNSYVSWFAYWGQGTMVTVSS VL: QTVVTQEPSLTVSPGGTVTLTCASSTGAVTTSNYANWVQQKPGQAPRALIGGTNKRAPGTPARFSGSLLGGKAALTLSGVQPEDEAEYYCALWYSNLWVFGGGTKLTVLG | – | 42
18 | 1F3.5 VL1.01-VH1.02 (CD3-binding bispecific TCE of Table 30) (bispecific antibody, V domains shown, CD3 Fab arm only) VH: EVQLVESGGGLVQPGGSLKLSCAASGFTFNTYAMNWVRQASGKGLEWVGRIRSKYNNYATYYADSVKGRFTISRDDSKNTAYLQMNSLKTEDTAVYYCVRHGNFGNSYVSWFAYWGQGTMVTVSS VL: QTVVTQEPSLTVSPGGTVTLTCASSTGAVTTSNYANWVQQKPGQAPRALIGGTNKRAPGTPARFSGSLLGGKAALTLSGVQPEDEAEYYCALWYSNLWVFGGGTKLTVLG | – | 47.1
19 | 1F3.5 VL1.01-VH1.03 (CD3-binding bispecific TCE of Table 30) (bispecific antibody, V domains shown, CD3 Fab arm only) VH: EVQLVESGGGLVQPGGSLKLSCAASGFTFNTYAMNWVRQASGKGLEWVGRIRSKYNNYATYYADSVKGRFTISRDDSKNTLYLQMNSLKTEDTAVYYCVRHGNFGASYVSWFAYWGQGTMVTVSS VL: QTVVTQEPSLTVSPGGTVTLTCASSTGAVTTSNYANWVQQKPGQAPRALIGGTNKRAPGTPARFSGSLLGGKAALTLSGVQPEDEAEYYCALWYSNLWVFGGGTKLTVLG | – | 84.8
20 | 1F3.5 VL1.01-VH1.04 (CD3-binding bispecific TCE of Table 30) (bispecific antibody, V domains shown, CD3 Fab arm only) VH: EVQLVESGGGLVQPGGSLKLSCAASGFTFNTYAMNWVRQASGKGLEWVGRIRSKYNNYATYYADSVKGRFTISRDDSKNTLYLQMNSLKTEDTAVYYCVRHGNFGESYVSWFAYWGQGTMVTVSS VL: QTVVTQEPSLTVSPGGTVTLTCASSTGAVTTSNYANWVQQKPGQAPRALIGGTNKRAPGTPARFSGSLLGGKAALTLSGVQPEDEAEYYCALWYSNLWVFGGGTKLTVLG | – | 74.2
21 | 1F3.5 VL1.00-VH1.05 (CD3-binding bispecific TCE of Table 30) (bispecific antibody, V domains shown, CD3 Fab arm only; VL1.00 read as the parental 1F3.5 light chain) VH: EVQLVESGGGLVQPGGSLKLSCAASGFTFNTYAMNWVRQASGKGLEWVGRIRSKYNNYATYYADSVKGRFTISRDDSKNTAYLQMNSLKTEDTAVYYCVRHGNFGNAYVSFAYWGQGTMVTVSS VL: QAVVTQEPSLTVSPGGTVTLTCRSSTGAVTTSNYANWVQQKPGQAPRGLIGGTNKRAPGTPARFSGSLLGGKAALTLSGVQPEDEAEYYCALWYSNLWVFGGGTKLTVLG | – | 8.2
22 | 1F3.5 VL1.01-VH1.05 (CD3-binding bispecific TCE of Table 30) (bispecific antibody, V domains shown, CD3 Fab arm only) VH: EVQLVESGGGLVQPGGSLKLSCAASGFTFNTYAMNWVRQASGKGLEWVGRIRSKYNNYATYYADSVKGRFTISRDDSKNTAYLQMNSLKTEDTAVYYCVRHGNFGNAYVSFAYWGQGTMVTVSS VL: QTVVTQEPSLTVSPGGTVTLTCASSTGAVTTSNYANWVQQKPGQAPRALIGGTNKRAPGTPARFSGSLLGGKAALTLSGVQPEDEAEYYCALWYSNLWVFGGGTKLTVLG | – | 59.2
